39 molecules from paper PMC314469, “Protein Interaction Networks by Proteome Peptide Scanning” (PLoS Biology, 2004) can be followed below.

T1: Abp1 SH3 (ABP1_YEAST), P15891
T1 chain: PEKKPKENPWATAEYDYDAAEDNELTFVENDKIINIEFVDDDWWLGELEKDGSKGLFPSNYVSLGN

For the test, the target named is T1, Abp1 SH3 (ABP1_YEAST), P15891. Briefly: SPOT array.
Molecule MKLEGTYEKIPEKP [YAL024C 1062-1075] returned a normalised SPOT signal, Boehringer light units (BLU); mean over the file's lines of this peptide of 201.
In turn, MKHFFRLPTAFRP [YHR120W 1-13] had a normalised SPOT signal, Boehringer light units (BLU); mean over the file's lines of this peptide of 538.
As for MNPKSSTPKIPRP [YPR065W 1-13], the normalised SPOT signal, Boehringer light units (BLU); mean over the file's lines of this peptide was found to be 1070.
The molecule LVSIENAPVSLRP [YGR031W 172-184] registered a normalised SPOT signal, Boehringer light units (BLU); mean over the file's lines of this peptide of 59.6.
Take MAKSQNKPKREKP [YDR381W 195-207]: the normalised SPOT signal, Boehringer light units (BLU); mean over the file's lines of this peptide turned out to be 2220.
Take LYPQGYDPTDPSRP [YDR093W 1465-1478]: the normalised SPOT signal, Boehringer light units (BLU); mean over the file's lines of this peptide stood at 57.7.
The figure for LVTPLAGGVTPMKP [YAL054C 478-491] is 93.7; for LYALVLKPVGKKP [YOR109W 19-31] it is 109; for MRSNPQQPPQDKP [YPL204W 475-487] it is 264.
With LVDPKVDPILLRP [YBL069W 153-165], the normalised SPOT signal, Boehringer light units (BLU); mean over the file's lines of this peptide is 137.
Regarding MQDYRPSPQSARP [YLL043W 81-93], the normalised SPOT signal, Boehringer light units (BLU); mean over the file's lines of this peptide amounted to 310.
For MNIRPSISMRPIKP [YNL105W 40-53], the normalised SPOT signal, Boehringer light units (BLU); mean over the file's lines of this peptide came out at 9140.
Regarding LYEQFRNPLRSRP [YDR389W 229-241], the normalised SPOT signal, Boehringer light units (BLU); mean over the file's lines of this peptide came out at 950.
The figure for MPQNQGFPPQFKP [YCL037C 234-246] is 308; for LWSWVLGPLLSRP [YOL110W 177-189] it is 120; for LWTNDDYLQQPARP [YER136W 199-212] it is 30.
The figure for LWALLQSGRLPQRP [YDR147W 440-453] is 322; for MAKEDTGVTAPKKP [YOR086C 1-14] it is 119.
Take MARGSHFPILNRP [YNL013C 89-101]: the normalised SPOT signal, Boehringer light units (BLU); mean over the file's lines of this peptide stood at 2480.
Take MIEPAYRNGGPVKP [YOR093C 939-952]: the normalised SPOT signal, Boehringer light units (BLU); mean over the file's lines of this peptide is 63.4.
In turn, MDDFVTPPDEVKP [YBR023C 712-724] yielded a normalised SPOT signal, Boehringer light units (BLU); mean over the file's lines of this peptide of 40.3.
Next, MDTMANILYYPQKP [YOR151C 789-802]: 117.
MEEPFIWPEEPRP [YDR405W 164-176] displayed a normalised SPOT signal, Boehringer light units (BLU); mean over the file's lines of this peptide of 184.
MGARNVQPTMFKP [YDL164C 244-256] registered a normalised SPOT signal, Boehringer light units (BLU); mean over the file's lines of this peptide of 6660.
Turning to MQLGSLVPSSLKP [YLR413W 258-270], the normalised SPOT signal, Boehringer light units (BLU); mean over the file's lines of this peptide stood at 3590.
As to MKTTDTYPSLPKP [YMR205C 179-191], the normalised SPOT signal, Boehringer light units (BLU); mean over the file's lines of this peptide was 97.9.
Next, LVSATAVPAESKP [YPL074W 405-417]: 25; LWQRKKLGEAPIKP [YLR129W 775-788]: 29.7; LYMDKFIKLIPMRP [YDR479C 283-296]: 4270.
As to LTTNKETPANAKP [YAR044W 406-418], the normalised SPOT signal, Boehringer light units (BLU); mean over the file's lines of this peptide was 111.
The figure for LWQYVTDPSYKKP [YBR241C 284-296] is 48.4.
Take MEVGGVRNYVPQKP [YKL095W 108-121]: the normalised SPOT signal, Boehringer light units (BLU); mean over the file's lines of this peptide turned out to be 68.
Next, MSELHALLTFPERP [YDR465C 1-14]: 18.5.
In turn, MNDDRETPPKRKP [YAL026C 1-13] displayed a normalised SPOT signal, Boehringer light units (BLU); mean over the file's lines of this peptide of 6180.
With MFARLANPAHFKP [YOR226C 1-13], the normalised SPOT signal, Boehringer light units (BLU); mean over the file's lines of this peptide worked out at 2660.
In turn, LVFELDENLKPSKP [YKL152C 212-225] gave a normalised SPOT signal, Boehringer light units (BLU); mean over the file's lines of this peptide of 105.
In turn, MRSHMEQPQSIKP [YOR329C 457-469] returned a normalised SPOT signal, Boehringer light units (BLU); mean over the file's lines of this peptide of 1740.
LTSGGSLPVSPRP [YOL061W 323-335]: the normalised SPOT signal, Boehringer light units (BLU); mean over the file's lines of this peptide was determined as 60.
LTNLIRNPRFSKP [YHR168W 311-323]: the normalised SPOT signal, Boehringer light units (BLU); mean over the file's lines of this peptide is 631.
